Laboratory results taken from patent publication US20180312587A1 (ADURO BIOTECH HOLDINGS EUROPE B V, published 2018).

B1: hSIRPα.50A.H1L2 (antibody, human IgG4 S228P, kappa, V domains shown)
VH: EVQLQQSGAEVVKPGASVKVSCKASGFTFTNYYIHWVRQAPGQGLEWIGWIYPGNVNTKYNEKFKARVTITADKSTSTAYMDLSSLRSEDTAVYYCARPTIIATDFDVWGQGTTVTVSS
VL: DIVMTQSPSSLSASVGDRVTITCKASQGVGTAVGWYQQKPGKAPKLLIYWASTRHTGVPDRFSGSGSGTDFTLTISNLQPEDFADYYCQQYSTYPFTFGGGTKVEIKR
notes: human IgG4 S228P, kappa; also called hSIRPα.50H1L2
B2: hSIRPα.50A.H3L3 (antibody, human IgG4 S228P, kappa, V domains shown)
VH: EVQLVQSGAEVVKPGASVMISCKASGFTFTNYYIHWVRQRPGQGLEWIGWIYPGNVNTKYNEKFKARVIMTADKSTSTVYMQLSSLTSEDTAVYYCARPTIIATDFDVWGQGTLVTVSS
VL: ELVMTQSPSSLSASVGDRVTITCKASQGVGTAVGWYQQKPGKAPKLLIYWASTRHTGVPDRFSGSGSGTDFTLAISSLQPEDIADYYCQQYSTYPFTFGGGTKVEIKR
notes: human IgG4 S228P, kappa; also called hSIRPα.50H3L3
B3: hSIRPα.50A.H3L1 (antibody, human IgG4 S228P, kappa, V domains shown)
VH: EVQLVQSGAEVVKPGASVMISCKASGFTFTNYYIHWVRQRPGQGLEWIGWIYPGNVNTKYNEKFKARVIMTADKSTSTVYMQLSSLTSEDTAVYYCARPTIIATDFDVWGQGTLVTVSS
VL: DIVLTQSPSFLSASVGDRVTITCKASQGVGTAVGWYQQKPGKAPKLLIYWASTRHTGVPDRFSGSGSGTEFTLTISSLQPEDFAAYYCQQYSTYPFTFGGGTKLEIKR
notes: human IgG4 S228P, kappa; also called hSIRPα.50H3L1
B4: hSIRPα.50A.H1L4 (antibody, human IgG4 S228P, kappa, V domains shown)
VH: EVQLQQSGAEVVKPGASVKVSCKASGFTFTNYYIHWVRQAPGQGLEWIGWIYPGNVNTKYNEKFKARVTITADKSTSTAYMDLSSLRSEDTAVYYCARPTIIATDFDVWGQGTTVTVSS
VL: DIQMTQSPSSLSASVGDRVTITCKASQGVGTAVGWYQKKPGKVPKLLIYWASTRHTGVPDRFSGSGSGTDFTLTINGLQPEDVATYYCQQYSTYPFTFGGGTKLEIKR
notes: human IgG4 S228P, kappa; also called hSIRPα.50H1L4
B5: hSIRPα.50A.H5L3 (antibody, human IgG4 S228P, kappa, V domains shown)
VH: EVQLVQSGAEVVKPGASVKVSCKASGFTFTNYYIHWVRQAPEQGLEWIGWIYPGNVNTKYNEKFKARVTMTADKSTSTAYMELSSLRSDDMAVYYCARPTIIATDFDVWGQGTTVTVSS
VL: ELVMTQSPSSLSASVGDRVTITCKASQGVGTAVGWYQQKPGKAPKLLIYWASTRHTGVPDRFSGSGSGTDFTLAISSLQPEDIADYYCQQYSTYPFTFGGGTKVEIKR
notes: human IgG4 S228P, kappa; also called hSIRPα.50H5L3
B6: hSIRPα.50A.H3L2 (antibody, human IgG4 S228P, kappa, V domains shown)
VH: EVQLVQSGAEVVKPGASVMISCKASGFTFTNYYIHWVRQRPGQGLEWIGWIYPGNVNTKYNEKFKARVIMTADKSTSTVYMQLSSLTSEDTAVYYCARPTIIATDFDVWGQGTLVTVSS
VL: DIVMTQSPSSLSASVGDRVTITCKASQGVGTAVGWYQQKPGKAPKLLIYWASTRHTGVPDRFSGSGSGTDFTLTISNLQPEDFADYYCQQYSTYPFTFGGGTKVEIKR
notes: human IgG4 S228P, kappa; also called hSIRPα.50H3L2
B7: hSIRPα.50A.H4L2 (antibody, human IgG4 S228P, kappa, V domains shown)
VH: EVQLQQSGAELVKPGASVKVSCKASGFTFTNYYIHWVRQRPGQGLEWMGWIYPGNVNTKYNEKFKAKATITADKSTSTAYMELSSLTSEDTAVYYCARPTIIATDFDVWGQGTTVTVSS
VL: DIVMTQSPSSLSASVGDRVTITCKASQGVGTAVGWYQQKPGKAPKLLIYWASTRHTGVPDRFSGSGSGTDFTLTISNLQPEDFADYYCQQYSTYPFTFGGGTKVEIKR
notes: human IgG4 S228P, kappa; also called hSIRPα.50H4L2
B8: hSIRPα.50A.H1L3 (antibody, human IgG4 S228P, kappa, V domains shown)
VH: EVQLQQSGAEVVKPGASVKVSCKASGFTFTNYYIHWVRQAPGQGLEWIGWIYPGNVNTKYNEKFKARVTITADKSTSTAYMDLSSLRSEDTAVYYCARPTIIATDFDVWGQGTTVTVSS
VL: ELVMTQSPSSLSASVGDRVTITCKASQGVGTAVGWYQQKPGKAPKLLIYWASTRHTGVPDRFSGSGSGTDFTLAISSLQPEDIADYYCQQYSTYPFTFGGGTKVEIKR
notes: human IgG4 S228P, kappa; also called hSIRPα.50H1L3
B9: hSIRPα.50A.H5L1 (antibody, human IgG4 S228P, kappa, V domains shown)
VH: EVQLVQSGAEVVKPGASVKVSCKASGFTFTNYYIHWVRQAPEQGLEWIGWIYPGNVNTKYNEKFKARVTMTADKSTSTAYMELSSLRSDDMAVYYCARPTIIATDFDVWGQGTTVTVSS
VL: DIVLTQSPSFLSASVGDRVTITCKASQGVGTAVGWYQQKPGKAPKLLIYWASTRHTGVPDRFSGSGSGTEFTLTISSLQPEDFAAYYCQQYSTYPFTFGGGTKLEIKR
notes: human IgG4 S228P, kappa; also called hSIRPα.50H5L1
B10: hSIRPα.50A.H4L3 (antibody, human IgG4 S228P, kappa, V domains shown)
VH: EVQLQQSGAELVKPGASVKVSCKASGFTFTNYYIHWVRQRPGQGLEWMGWIYPGNVNTKYNEKFKAKATITADKSTSTAYMELSSLTSEDTAVYYCARPTIIATDFDVWGQGTTVTVSS
VL: ELVMTQSPSSLSASVGDRVTITCKASQGVGTAVGWYQQKPGKAPKLLIYWASTRHTGVPDRFSGSGSGTDFTLAISSLQPEDIADYYCQQYSTYPFTFGGGTKVEIKR
notes: human IgG4 S228P, kappa; also called hSIRPα.50H4L3
B11: hSIRPα.50A.H1L5 (antibody, human IgG4 S228P, kappa, V domains shown)
VH: EVQLQQSGAEVVKPGASVKVSCKASGFTFTNYYIHWVRQAPGQGLEWIGWIYPGNVNTKYNEKFKARVTITADKSTSTAYMDLSSLRSEDTAVYYCARPTIIATDFDVWGQGTTVTVSS
VL: DIVLTQSPSFLSASVGDRVTITCKASQGVGTAVGWYQQKPGKSPKLLIYWASTRHTGVPDRFSGSGSGTEFTLTISNLQPEDFAAYYCQQYSTYPFTFGGGTKLEIKR
notes: human IgG4 S228P, kappa; also called hSIRPα.50H1L5
B12: hSIRPα.50A.H5L2 (antibody, human IgG4 S228P, kappa, V domains shown)
VH: EVQLVQSGAEVVKPGASVKVSCKASGFTFTNYYIHWVRQAPEQGLEWIGWIYPGNVNTKYNEKFKARVTMTADKSTSTAYMELSSLRSDDMAVYYCARPTIIATDFDVWGQGTTVTVSS
VL: DIVMTQSPSSLSASVGDRVTITCKASQGVGTAVGWYQQKPGKAPKLLIYWASTRHTGVPDRFSGSGSGTDFTLTISNLQPEDFADYYCQQYSTYPFTFGGGTKVEIKR
notes: human IgG4 S228P, kappa; also called hSIRPα.50H5L2
B13: hSIRPα.50A.H1L1 (antibody, human IgG4 S228P, kappa, V domains shown)
VH: EVQLQQSGAEVVKPGASVKVSCKASGFTFTNYYIHWVRQAPGQGLEWIGWIYPGNVNTKYNEKFKARVTITADKSTSTAYMDLSSLRSEDTAVYYCARPTIIATDFDVWGQGTTVTVSS
VL: DIVLTQSPSFLSASVGDRVTITCKASQGVGTAVGWYQQKPGKAPKLLIYWASTRHTGVPDRFSGSGSGTEFTLTISSLQPEDFAAYYCQQYSTYPFTFGGGTKLEIKR
notes: human IgG4 S228P, kappa; also called hSIRPα.50H1L1
B14: hSIRPα.50A.H5L5 (antibody, human IgG4 S228P, kappa, V domains shown)
VH: EVQLVQSGAEVVKPGASVKVSCKASGFTFTNYYIHWVRQAPEQGLEWIGWIYPGNVNTKYNEKFKARVTMTADKSTSTAYMELSSLRSDDMAVYYCARPTIIATDFDVWGQGTTVTVSS
VL: DIVLTQSPSFLSASVGDRVTITCKASQGVGTAVGWYQQKPGKSPKLLIYWASTRHTGVPDRFSGSGSGTEFTLTISNLQPEDFAAYYCQQYSTYPFTFGGGTKLEIKR
notes: human IgG4 S228P, kappa; also called hSIRPα.50H5L5

Assays:
[1] = target: T1, human SIRPα variant 2 (human, UniProt P78324 31-504); assay: CELISA, CHO-K1 transfectants; average of two experiments
T1 construct: full length ORF on transfected CHO-K1 cells; also called hSIRPαV2; SIRPαV2
Method: (§1) Binding of the humanized antibodies to hSIRPα was studied in CELISA format. Binding of the hSIRPα antibodies to human SIRPαV1, SIRPαV2, hSIRPβ1, and hSIRPγ was confirmed using CHO-K1 cells that had been transiently transfected with cDNA encoding the full length open reading frame of each of these respective targets subcloned into the pCI-neo vector. CHO-K1.hSIRPαV1, CHO-K1.hSIRPαV2, CHO-K1.hSIRPβ1, and CHO-K1.hSIRPγ cells were seeded in culture medium (DMEM-F12 (Gibco) supplemented with 5% New Born Calf Serum (BioWest) and Pen/Strep (Gibco)) in 96-well flat-bottom tissue culture plates and incubated at 37° C., 5% CO₂ and 95% humidity until cell layers were confluent. Subsequently, culture medium was removed and cells were incubated for 1 hour at 37° C., 5% CO₂ and 95% humidity with purified hSIRPα antibodies (10 μg/mL and dilutions thereof). Next, cells were washed with PBS-T and incubated for 1 hour at 37° C., 5% CO₂ and 95% humidity with goat-anti-human IgG-HRP conjugate (Jackson Immuno Research) or goat-anti-mouse IgG-HRP (Southern Biotech). Subsequently, cells were washed three times with PBS-T and anti-hSIRPα immunoreactivity was visualized with TMB Stabilized Chromogen (Invitrogen). Reactions were stopped with 0.5 M H₂SO₄ and absorbances were read at 450 and 610 nm. […] In Table 13 the EC50 values of the humanized hSIRPα antibodies are depicted.
(§2) Table 13: Binding of humanized and parental hSIRPα.50A antibodies to CHO-K1.hSIRPαV1, CHO-K1.hSIRPαV2, CHO-K1.hSIRPβ1, and CHO-K1.hSIRPγ cells.

[2] = target: T2, human SIRPα variant 1 (human, UniProt P78324 31-504); assay: as above
T2 construct: full length ORF on transfected CHO-K1 or HEK293 cells; entry includes the signal peptide; also called hSIRPαV1; SIRPαV1
Method: as §1, §2

[3] = target: T3, human SIRPγ (human, UniProt Q9P1W8 29-387); assay: CELISA, CHO-K1 transfectants; extrapolated
T3 construct: on transfected CHO-K1 cells; also called hSIRPγ
Method: as §1, §2

[4] = target: T4, human SIRPβ1 (human, UniProt O00241 30-398); assay: CELISA, CHO-K1 transfectants; nd = not detected
T4 construct: also called hSIRPβ1
Method: as §1, §2

T1 sequence (P78324 other isoform, or with tags, fused parts or gaps mutant limits assumed): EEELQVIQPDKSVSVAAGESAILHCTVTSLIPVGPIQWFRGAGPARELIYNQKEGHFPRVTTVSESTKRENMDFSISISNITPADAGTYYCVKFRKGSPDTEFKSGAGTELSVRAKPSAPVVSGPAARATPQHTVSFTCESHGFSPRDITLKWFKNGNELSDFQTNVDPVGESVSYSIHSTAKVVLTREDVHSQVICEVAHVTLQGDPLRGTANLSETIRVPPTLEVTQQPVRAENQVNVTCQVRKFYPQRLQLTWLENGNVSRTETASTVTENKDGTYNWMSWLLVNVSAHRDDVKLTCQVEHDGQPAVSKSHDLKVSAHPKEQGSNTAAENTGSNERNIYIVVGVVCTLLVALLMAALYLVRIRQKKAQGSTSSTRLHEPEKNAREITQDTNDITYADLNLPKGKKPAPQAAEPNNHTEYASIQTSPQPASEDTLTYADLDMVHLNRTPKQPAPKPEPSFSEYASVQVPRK
T4 sequence (O00241 30-398 limits assumed): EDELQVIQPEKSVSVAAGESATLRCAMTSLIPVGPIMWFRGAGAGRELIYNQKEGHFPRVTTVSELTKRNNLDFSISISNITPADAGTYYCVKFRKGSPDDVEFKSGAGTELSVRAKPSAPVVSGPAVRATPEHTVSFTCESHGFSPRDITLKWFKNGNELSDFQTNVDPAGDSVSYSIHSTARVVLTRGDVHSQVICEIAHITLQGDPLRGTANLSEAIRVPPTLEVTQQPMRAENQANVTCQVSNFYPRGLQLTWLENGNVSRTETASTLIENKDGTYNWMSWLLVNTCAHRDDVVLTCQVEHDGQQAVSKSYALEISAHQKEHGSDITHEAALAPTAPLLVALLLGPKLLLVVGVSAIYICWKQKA
T3 sequence (Q9P1W8 29-387 limits assumed): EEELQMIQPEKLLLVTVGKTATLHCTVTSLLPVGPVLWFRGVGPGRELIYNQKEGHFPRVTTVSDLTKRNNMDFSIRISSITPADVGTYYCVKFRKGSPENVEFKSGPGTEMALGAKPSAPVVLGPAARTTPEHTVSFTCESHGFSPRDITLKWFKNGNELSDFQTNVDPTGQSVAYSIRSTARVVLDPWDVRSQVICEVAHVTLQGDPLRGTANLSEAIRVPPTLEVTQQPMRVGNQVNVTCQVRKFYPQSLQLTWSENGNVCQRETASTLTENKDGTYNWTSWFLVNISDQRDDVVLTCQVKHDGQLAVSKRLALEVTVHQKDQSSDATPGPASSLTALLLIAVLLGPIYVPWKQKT
T2 sequence (P78324 31-504 limits assumed, change not shown): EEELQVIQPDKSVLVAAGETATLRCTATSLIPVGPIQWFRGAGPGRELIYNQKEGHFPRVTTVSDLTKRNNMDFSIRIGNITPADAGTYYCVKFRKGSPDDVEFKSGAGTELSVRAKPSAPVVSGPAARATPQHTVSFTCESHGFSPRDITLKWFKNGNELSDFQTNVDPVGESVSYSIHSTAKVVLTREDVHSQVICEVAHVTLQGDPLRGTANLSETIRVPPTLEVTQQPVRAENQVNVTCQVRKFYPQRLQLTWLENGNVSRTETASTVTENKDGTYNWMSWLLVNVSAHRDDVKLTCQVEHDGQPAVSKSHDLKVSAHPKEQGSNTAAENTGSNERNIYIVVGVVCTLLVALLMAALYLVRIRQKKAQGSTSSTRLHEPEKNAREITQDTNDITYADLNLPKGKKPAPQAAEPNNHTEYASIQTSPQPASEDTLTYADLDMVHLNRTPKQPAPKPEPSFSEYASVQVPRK

Binder	EC50 [1] [nM]	EC50 [2] [nM]	EC50 [3] [nM]	binding result [4]
B1	0.816	0.781	1.26	no binding (tested: 10 µg/mL and dilutions thereof)
B2	1.16	1.16	2.47	no binding (tested: 10 µg/mL and dilutions thereof)
B3	1.06	1.1	1.42	no binding (tested: 10 µg/mL and dilutions thereof)
B4	1.62	1.49	7.43	no binding (tested: 10 µg/mL and dilutions thereof)
B5	0.796	1.03	1.61	no binding (tested: 10 µg/mL and dilutions thereof)
B6	0.999	1.05	1.5	no binding (tested: 10 µg/mL and dilutions thereof)
B7	0.651	0.737	0.871	no binding (tested: 10 µg/mL and dilutions thereof)
B8	1.11	1.09	2.58	no binding (tested: 10 µg/mL and dilutions thereof)
B9	0.709	0.731	1.03	no binding (tested: 10 µg/mL and dilutions thereof)
B10	0.898	0.933	1.6	no binding (tested: 10 µg/mL and dilutions thereof)
B11	0.848	0.962	1.01	no binding (tested: 10 µg/mL and dilutions thereof)
B12	0.572	0.675	0.822	no binding (tested: 10 µg/mL and dilutions thereof)
B13	0.864	0.883	1.49	no binding (tested: 10 µg/mL and dilutions thereof)
B14	0.611	0.681	0.868	no binding (tested: 10 µg/mL and dilutions thereof)
